B1: S45 glycoprotein (45 kDa sporozoite surface protein of Cryptosporidium parvum) (other)
chain: DVPVEGSSSSSSSSSSSSSSSSSSSSSTSTVAPANKARTGEDAEGSQDSSGTEASGSQGSEEEGSEDDGQTSAASQPTTPAQSEGATTETIEATPKEECGTSFVMWFGEGTPAATLKCGAYTIVYAPIKDQTDPAPRYISGEVTSVTFEKSDNTVKIKVNGQDFSTLSANSSSPTENGGSAGQASSR
modifications: long stretch of serine residues after DVPVEG glycosylated with single residues of alpha N-acetyl galactosamine (first serine only partially); residues 180, 186 and 188 (S60 numbering) thought to be modified lysines
notes: Native protein from sporozoites/oocysts; also called 45 kDa protein; 45 kDa band
B2: S15 glycoprotein (15 kDa sporozoite surface protein of Cryptosporidium parvum) (other)
chain: SEETSEAAATVDLFAFTLDGGKRIEVAVPNVEDASKRDKYSLVADDKPFYTGANSGTTNGVYRLNENGDLVDKDNTVLLKDAG
modifications: glycosylated (labelled by H. pomatia lectin); glycosyl phosphatidyl inositol anchor predicted at the C-terminal glycine (residue 305 of S60)
notes: Native protein from sporozoites/oocysts, on blots after SDS-PAGE; also called 15 kDa protein band; 15 kDa protein
B3: S30 (minor sporozoite protein, proteolytic degradation product of S45) (other)
chain: TGEDAEGSQDSSGTEASGSQGSEEEGSEDDGQTSAASQPTTPAQSEGATTETIEATPKEECGTSFVMWFGEGTPAATLKCGAYTIVYAPIKDQTDPAPRYISGEVTSVTFEKSDNTVKIKVNGQDFSTLSANSSSPTENGGSAGQASSR

Assays:
[1] = biological target: B2; assay: co-fractionation: Triton X-114 phase separation, isoelectric focusing
[2] = biological target: T1, Canavalia ensiformis lectin (Con A) (Canavalia ensiformis, UniProt P02866 30-281, limits assumed, biotin-conjugated); assay: lectin blot after SDS-PAGE of sporozoite surface proteins
[3] = biological target: T1, Canavalia ensiformis lectin (Con A); assay: lectin Western blot of Triton X-114 fractionated sporozoite proteins
Method: Excysted oocysts or purified sporozoites were resuspended to 1×10⁹ cells/ml in ice-cold TBS (10 mM Tris, pH 8.0, 140 mM NaCl) containing a protease inhibitor mixture of 50 μM leupeptin (Sigma),.10 μM E-64 (Sigma), 1 mM phenylmethylsulfonylfluoride (Sigma). […] Lysates were then centrifuged (100,000×g for 1 h at 4° C.) and the supernatant warmed for 3 minutes to 37° C. to induce phase separation. The water phase and the membrane protein enriched detergent phase were separated by centrifugation and each phase reextracted once. The phases were adjusted to the original volume and proteins precipitated by adding 1/10 volume of ice cold 100% (w/v) trichloroacetic acid. After 30 minutes precipitates were pelleted by centrifugation and washed twice in 70% (v/v) ice-cold ethanol and once with acetone. Pellets were then air dried and redissolved in 1-D or 2-D sample buffer for electrophoretic analysis.
For lectin analysis, membranes blocked with 1% (w/v) BSA in PBS were incubated for 1 h with biotin-conjugated lectins (Sigma) in BSA/PBS and a further 3 h with 1:10,000 alkaline-phosphatase-conjugated ExtrAvidin in PBS. […] Membranes were developed in 1 M diethanolamine, pH 9.8, containing 1 mM MgCl₂, 0.5 mM 5-bromo-4-chloro-3-indolyl phosphate and 0.5 mM nitroblue tetrazolium.

B1
binding result [1]: binds | binding result [2]: no binding

B2
binding result [2]: no binding

B3
binding result [3]: no binding
